{
  "source": "paper PMC7042059",
  "about": "(FEBS letters, 2019)",
  "target": "the molecule itself",
  "assay": "SEC",
  "note": "Where “and” joins values, the source holds several entries; their conditions need not be identical. Equal values may be shown once.",
  "data": [
    {"protein": "PKM2 R399E (enzyme) not shown", "values": [
      {"measurement": "stoichiometry N", "result": "4 and 2"}
    ]}
  ]
}
